Experimental data as given in article PMC6885295, “Soluble Production, Characterization, and Structural Aesthetics of an Industrially Important Thermostable β-Glucosidase from Clostridium thermocellum in Escherichia coli” (BioMed Research International, 2019).

System: T1, OCc1ccccc1O[C@@H]1O[C@H](CO)[C@@H](O)[C@H](O)[C@H]1O
T1 construct: forward primer reads ATG GCA AAG ATA ACT TTC (N-terminus MAKITF, NcoI site may change residue 2)
Assay: DNS reducing-sugar assay, Lineweaver-Burk plot
Format: biochemical, Acetivibrio thermocellus
Conditions: 1.5 M Tris-Cl pH 7.0, 50 °C, 30 min, substrate range 2.5-20 mM

## BglA (Acetivibrio thermocellus ATCC 27405; S2A)
  Km: 19.83 mM
